We go through nine molecules from patent publication US10428140B2, “Anti-EphA4 antibody” (EISAI R&D MANAGEMENT CO., LTD., priority 2015, dated 2019).

First the molecules themselves.
B1: 89 (antibody, V domains shown)
VL: DIQMTQSPSSLSASVGDRVTITCRASENIYRNLAWYQQKPGKAPQLLLYAATNLADGVPSRFSGSGSGTDYTLTISSLQPEDFATYYCQHFWGTPWTFGQGTKVEIK
VH: QIQLVQSGSELKKPGASVKVSCKASGYTFTDYSMHWVRQAPGQGLKWMGWINTETGEPTYAQGFTGRFVFSLDTSVSTAYLQISSLKAEDTAVYYCARIPLYYYGSRYWYFDVWGQGTTVTVSS
modifications: constant regions without entry; synthetic humanized antibody light chain variable region sequence; synthetic humanized antibody heavy chain variable region sequence
B2: 93 (antibody, V domains shown)
VL: EIVMTQSPATLSVSPGERATLSCRASENIYRNLAWYQQKPGQSPRLLIYAATNLADGIPARFSGSGSGTEYTLTISSLQSEDFAVYYCQHFWGTPWTFGQGTKVEIK
VH: B1 VH with I2V, K46E
modifications: constant regions without entry; synthetic humanized antibody light chain variable region sequence; synthetic humanized antibody heavy chain variable region sequence
B3: 92 (antibody, V domains shown)
VL: B1 VL
VH: B1 VH with Q62D, G63D, T65K
modifications: constant regions without entry; synthetic humanized antibody light chain variable region sequence; synthetic humanized antibody heavy chain variable region sequence
B4: 95 (antibody, V domains shown)
VL: B2 VL
VH: B1 VH with I2V, K46E, Q62D, G63D, T65K
modifications: constant regions without entry; synthetic humanized antibody light chain variable region sequence; synthetic humanized antibody heavy chain variable region sequence
B5: 94 (antibody, V domains shown)
VL: B2 VL
VH: B1 VH with I2V
modifications: constant regions without entry; synthetic humanized antibody light chain variable region sequence; synthetic humanized antibody heavy chain variable region sequence
B6: 90 (antibody, V domains shown)
VL: B1 VL
VH: B1 VH with I2V, K46E, Q62D, G63D, T65K
modifications: constant regions without entry; synthetic humanized antibody light chain variable region sequence; synthetic humanized antibody heavy chain variable region sequence
B7: 96 (antibody, V domains shown)
VL: B2 VL
VH: B1 VH with I2V, Q62D, G63D, T65K
modifications: constant regions without entry; synthetic humanized antibody light chain variable region sequence; synthetic humanized antibody heavy chain variable region sequence
B8: 71 (antibody, V domains shown)
VH: B1 VH
VL: B2 VL
modifications: synthetic humanized antibody heavy chain variable region sequence; synthetic humanized antibody light chain variable region sequence
B9: 91 (antibody, V domains shown)
VL: B1 VL
VH: B1 VH with I2V, Q62D, G63D, T65K
modifications: constant regions without entry; synthetic humanized antibody light chain variable region sequence; synthetic humanized antibody heavy chain variable region sequence

Numbering of substitutions follows the chain as printed.

T2 sequence (P54756 25-573 limits assumed): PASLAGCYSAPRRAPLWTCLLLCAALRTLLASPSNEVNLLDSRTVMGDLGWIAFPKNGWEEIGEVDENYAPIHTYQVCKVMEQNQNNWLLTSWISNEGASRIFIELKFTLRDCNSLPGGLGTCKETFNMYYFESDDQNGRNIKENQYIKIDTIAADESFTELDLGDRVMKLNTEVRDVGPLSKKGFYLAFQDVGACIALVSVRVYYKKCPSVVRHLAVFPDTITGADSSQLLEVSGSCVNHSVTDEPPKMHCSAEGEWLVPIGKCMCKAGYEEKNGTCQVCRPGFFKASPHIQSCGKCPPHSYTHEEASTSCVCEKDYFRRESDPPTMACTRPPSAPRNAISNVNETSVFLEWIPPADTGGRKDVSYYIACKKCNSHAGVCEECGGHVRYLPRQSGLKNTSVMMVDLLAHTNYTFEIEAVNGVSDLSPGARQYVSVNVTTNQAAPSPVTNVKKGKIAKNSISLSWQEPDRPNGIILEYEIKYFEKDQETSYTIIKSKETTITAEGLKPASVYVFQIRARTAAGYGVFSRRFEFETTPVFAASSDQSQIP

The target in the first assay is T1, human EphA10 (Homo sapiens, UniProt Q5JZY3).
T1 construct: a protein of the extracellular region of each human Eph receptor fused with the SEAP protein and the His tag; made in house; host or cells: Expi293F cells (culture supernatant)
T1 sequence (Q5JZY3 34-565 limits assumed): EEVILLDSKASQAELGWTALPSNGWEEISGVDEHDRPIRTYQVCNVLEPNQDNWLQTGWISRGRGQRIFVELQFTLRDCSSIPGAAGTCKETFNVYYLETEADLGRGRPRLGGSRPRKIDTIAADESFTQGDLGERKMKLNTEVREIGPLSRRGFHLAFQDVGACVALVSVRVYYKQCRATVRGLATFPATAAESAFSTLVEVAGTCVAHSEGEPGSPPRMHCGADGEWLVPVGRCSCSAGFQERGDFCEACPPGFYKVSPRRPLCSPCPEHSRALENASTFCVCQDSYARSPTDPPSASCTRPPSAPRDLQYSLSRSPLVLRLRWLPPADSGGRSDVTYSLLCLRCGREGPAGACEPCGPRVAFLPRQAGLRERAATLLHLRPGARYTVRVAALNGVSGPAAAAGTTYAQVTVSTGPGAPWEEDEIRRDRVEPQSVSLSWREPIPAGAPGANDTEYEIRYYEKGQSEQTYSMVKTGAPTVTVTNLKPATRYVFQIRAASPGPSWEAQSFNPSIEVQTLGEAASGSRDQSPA
Nature of the assay: Selectivity ELISA of humanized antibodies for human Eph receptor. Type of assay: binding. The note with it: coated protein 1 nM. The procedure, abridged: (§1)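 Capture ELISA: anti-6-His coat, 1% BlockAce block, Eph ECD-SEAP-His (1 nM final, Expi293F supernatant) 1 h RT, humanized Ab 1 h RT, HRP anti-IgG 1 h RT, TMB, H2SO4 stop, A450.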
With B1, the “hEphA10-SEAP-: absorbance at 450 nm, percentage with respect to hEphA4-SEAP-His as 100%” value is on record as 5.7%.
Still for that read-out and setting: the value for B2 was 4.9%.
Still for that read-out and setting: next, B3: 6.6%; B4: 4.5%.
Same read-out and setting: next, B5: 6.4%.
In the case of B6, the “hEphA10-SEAP-: absorbance at 450 nm, percentage with respect to hEphA4-SEAP-His as 100%” value is recorded as 5.1%.
The same measure, in the same setting: next, B7: 5.3%; B8: 5.3%.
Same read-out and setting: the value for B9 was 8.5%.

Another assay has as its target T2, human EphA5 (Homo sapiens, UniProt P54756).
T2 construct: a protein of the extracellular region of each human Eph receptor fused with the SEAP protein and the His tag; made in house; host or cells: Expi293F cells (culture supernatant)
The assay is described as above. In kind it is binding. The note with it: coated protein 1 nM. The procedure, abridged:
as §1
Regarding B1, the “hEphA5-SEAP-: absorbance at 450 nm, percentage with respect to hEphA4-SEAP-His as 100%” value was 5.8%.
Regarding B2, the “hEphA5-SEAP-: absorbance at 450 nm, percentage with respect to hEphA4-SEAP-His as 100%” value is listed as 4.9%.
Still for that read-out and setting: the value for B3 was 6.8%; that for B4 was 4.6%.
Same read-out and setting: the value for B5 was 6.5%; that for B6 was 5.1%; that for B7 was 6.0%.
With B8, the “hEphA5-SEAP-: absorbance at 450 nm, percentage with respect to hEphA4-SEAP-His as 100%” value stood at 5.6%.
On the same count and under the same terms, the value for B9 was 6.4%.

For another assay, the target named is T3, human EphB3 (Homo sapiens, UniProt P54753).
T3 construct: a protein of the extracellular region of each human Eph receptor fused with the SEAP protein and the His tag; made in house; host or cells: Expi293F cells
T3 sequence (P54753 34-559 limits assumed): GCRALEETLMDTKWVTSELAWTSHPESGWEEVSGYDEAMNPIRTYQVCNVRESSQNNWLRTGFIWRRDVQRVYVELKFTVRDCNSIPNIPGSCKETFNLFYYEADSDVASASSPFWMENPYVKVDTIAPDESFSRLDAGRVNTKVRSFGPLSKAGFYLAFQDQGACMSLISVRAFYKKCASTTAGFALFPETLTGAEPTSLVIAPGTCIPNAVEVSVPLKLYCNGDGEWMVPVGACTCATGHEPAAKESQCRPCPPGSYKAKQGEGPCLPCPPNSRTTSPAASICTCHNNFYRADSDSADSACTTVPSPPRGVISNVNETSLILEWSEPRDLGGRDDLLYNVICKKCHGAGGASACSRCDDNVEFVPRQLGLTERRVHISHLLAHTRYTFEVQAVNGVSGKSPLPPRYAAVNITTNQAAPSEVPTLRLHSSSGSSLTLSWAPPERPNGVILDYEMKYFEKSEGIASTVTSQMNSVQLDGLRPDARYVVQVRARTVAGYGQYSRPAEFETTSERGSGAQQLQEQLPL
The description is as above. In kind it is binding. The settings on record: coated protein 1 nM. The procedure, abridged: as §1
On to B1, for which the “hEphB3-SEAP-: absorbance at 450 nm, percentage with respect to hEphA4-SEAP-His as 100%” value is on record as 5.7%.
Same read-out and setting: the value for B2 was 5.1%.
Regarding B3, the “hEphB3-SEAP-: absorbance at 450 nm, percentage with respect to hEphA4-SEAP-His as 100%” value is 6.9%.
Still for that read-out and setting: the value for B4 was 4.6%; that for B5 was 6.7%; that for B6 was 5.1%.
On the same count and under the same terms, next, B7: 5.6%.
For B8, the “hEphB3-SEAP-: absorbance at 450 nm, percentage with respect to hEphA4-SEAP-His as 100%” value turned out to be 5.5%.
Regarding B9, the “hEphB3-SEAP-: absorbance at 450 nm, percentage with respect to hEphA4-SEAP-His as 100%” value is recorded as 7.0%.

For a further assay, the target named is T4, human EphB6 (Homo sapiens, UniProt O15197).
T4 construct: a protein of the extracellular region of each human Eph receptor fused with the SEAP protein and the His tag; made in house; host or cells: Expi293F cells
T4 sequence (O15197 32-594 limits assumed): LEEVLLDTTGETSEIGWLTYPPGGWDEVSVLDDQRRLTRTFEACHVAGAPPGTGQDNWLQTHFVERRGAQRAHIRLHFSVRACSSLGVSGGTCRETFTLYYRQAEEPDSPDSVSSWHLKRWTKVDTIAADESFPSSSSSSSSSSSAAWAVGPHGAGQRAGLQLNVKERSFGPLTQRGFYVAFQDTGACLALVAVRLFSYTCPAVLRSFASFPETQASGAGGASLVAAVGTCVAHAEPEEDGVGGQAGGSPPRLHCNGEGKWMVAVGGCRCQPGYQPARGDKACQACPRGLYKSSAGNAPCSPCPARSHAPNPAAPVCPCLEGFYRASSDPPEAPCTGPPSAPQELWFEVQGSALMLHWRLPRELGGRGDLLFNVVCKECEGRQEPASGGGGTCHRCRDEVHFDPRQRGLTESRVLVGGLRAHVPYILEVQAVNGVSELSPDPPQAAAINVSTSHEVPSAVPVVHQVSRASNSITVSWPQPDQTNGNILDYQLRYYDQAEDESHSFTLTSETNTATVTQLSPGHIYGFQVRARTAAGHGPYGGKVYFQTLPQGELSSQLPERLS
The description is as above. In kind it is binding. The settings on record: coated protein 1 nM. The procedure, abridged:
as §1
For B1, the “hEphB6-SEAP-: absorbance at 450 nm, percentage with respect to hEphA4-SEAP-His as 100%” value worked out at 4.8%.
In the case of B2, the “hEphB6-SEAP-: absorbance at 450 nm, percentage with respect to hEphA4-SEAP-His as 100%” value worked out at 4.9%.
On the same count and under the same terms, next, B3: 6.5%; B4: 4.7%; B5: 6.4%.
The same measure, in the same setting: next, B6: 5.2%.
In the case of B7, the “hEphB6-SEAP-: absorbance at 450 nm, percentage with respect to hEphA4-SEAP-His as 100%” value turned out to be 5.5%.
On the same count and under the same terms, the value for B8 was 5.3%.
On the same count and under the same terms, next, B9: 6.3%.
